Experimental data reported in article PMC10399710, “The invariant chain CD74 protein is a cell surface binding partner of TIMP‐1 in breast cancer cells” (Molecular Oncology, 2023).

Target: T1, MHC class II‐associated invariant chain γ (CD74), endogenous in MDA‐MB‐231 cells (human (endogenous in MDA‐MB‐231), UniProt P04233 1-296)
T1 sequence (looked up): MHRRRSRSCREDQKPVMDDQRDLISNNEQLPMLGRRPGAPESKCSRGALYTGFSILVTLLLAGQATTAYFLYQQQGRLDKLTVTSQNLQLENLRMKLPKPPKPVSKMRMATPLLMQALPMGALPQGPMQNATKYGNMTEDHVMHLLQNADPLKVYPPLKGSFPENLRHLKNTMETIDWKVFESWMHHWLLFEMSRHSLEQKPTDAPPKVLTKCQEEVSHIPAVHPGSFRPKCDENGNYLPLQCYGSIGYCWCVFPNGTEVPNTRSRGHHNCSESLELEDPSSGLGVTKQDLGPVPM
Assay: cell-based or functional assay

B1: his6‐tagged human recombinant TIMP‐1 protein (rTIMP‐1) (natural protein)
chain: not shown
modifications: extensively glycosylated
P‐Akt (Ser473)/Akt ratio in MDA‐MB‐231 cells after 10 and 30 min of rTIMP‐1, normalised to 0 min (western blot): 2.3 P‐Akt/Akt ratio normalised to the 0 min sample
